Measured values reported in US20160159928A1.
“And” between values parts separate entries of the source, which are not always exact repeats. Identical values can stand only once. Like-named read-outs stand apart in the source and are kept apart here.

Key:
Test in all cases: cell-based or functional assay
CXCR1 [1] = molecular target: CXCR1 (UniProt P25024)
CXCR1 [2] = molecular target: CXCR1 (UniProt P25024); remark: listed apart in the source
Kv1.3 (human) = Kv1.3 (human) (UniProt P22001)
Kv1.3 (human), sequence (P22001 whole entry): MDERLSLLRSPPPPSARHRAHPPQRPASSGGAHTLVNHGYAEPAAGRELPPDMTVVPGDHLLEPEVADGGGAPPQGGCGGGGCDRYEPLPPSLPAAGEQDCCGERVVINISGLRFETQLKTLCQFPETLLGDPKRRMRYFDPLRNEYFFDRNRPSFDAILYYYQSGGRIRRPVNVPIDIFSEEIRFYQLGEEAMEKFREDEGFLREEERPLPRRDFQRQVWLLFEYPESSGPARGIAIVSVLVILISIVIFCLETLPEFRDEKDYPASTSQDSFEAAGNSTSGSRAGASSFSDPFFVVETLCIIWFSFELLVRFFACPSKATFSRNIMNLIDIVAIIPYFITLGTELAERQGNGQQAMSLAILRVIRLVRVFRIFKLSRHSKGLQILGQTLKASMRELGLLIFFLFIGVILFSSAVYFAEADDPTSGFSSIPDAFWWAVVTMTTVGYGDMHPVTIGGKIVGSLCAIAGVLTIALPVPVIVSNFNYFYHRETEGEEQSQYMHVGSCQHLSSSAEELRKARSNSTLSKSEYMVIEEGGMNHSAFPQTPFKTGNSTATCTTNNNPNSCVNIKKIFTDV

interleukin 8 (soluble), sequence (P10145 28-99 limits assumed): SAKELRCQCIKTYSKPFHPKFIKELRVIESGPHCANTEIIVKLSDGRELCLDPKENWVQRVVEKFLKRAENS
CXCR1, sequence (P25024 whole entry): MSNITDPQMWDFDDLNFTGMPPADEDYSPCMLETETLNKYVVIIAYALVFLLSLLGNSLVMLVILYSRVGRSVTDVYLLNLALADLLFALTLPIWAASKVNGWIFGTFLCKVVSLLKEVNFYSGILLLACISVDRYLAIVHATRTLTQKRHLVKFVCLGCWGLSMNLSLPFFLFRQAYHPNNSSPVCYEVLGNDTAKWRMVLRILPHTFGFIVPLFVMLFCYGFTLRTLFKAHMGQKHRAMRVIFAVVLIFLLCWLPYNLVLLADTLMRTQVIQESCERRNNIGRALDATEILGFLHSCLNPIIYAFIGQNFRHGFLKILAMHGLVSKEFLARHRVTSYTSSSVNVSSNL

IgG VH4-4 CDR3 BsaI (lacking the IL-8 insert) (antibody)
average RLU at 0.001 nM IgG (CXCR1 [1]): 7500 RLU | average RLU at 0.004 nM IgG (CXCR1 [1]): 7390 RLU | average RLU at 0.013 nM IgG (CXCR1 [1]): 7050 RLU | average RLU at 0.040 nM IgG (CXCR1 [1]): 6970 RLU | average RLU at 0.120 nM IgG (CXCR1 [1]): 7330 RLU | average RLU at 0.359 nM IgG (CXCR1 [1]): 6690 RLU | average RLU at 1.076 nM IgG (CXCR1 [1]): 7180 RLU | average RLU at 3.228 nM IgG (CXCR1 [1]): 7030 RLU | average RLU at 9.685 nM IgG (CXCR1 [1]): 7170 RLU | average RLU at 29.056 nM IgG (CXCR1 [1]): 7100 RLU | average RLU at 87.167 nM IgG (CXCR1 [1]): 7140 RLU | average RLU at 261.500 nM IgG (CXCR1 [1]): 7540 RLU

interleukin 8 (soluble) (from UniProt P10145 28-99) (ligand)
luminescence at 0.4 nM IL-8 domains (CXCR1 [2]): 4930 | luminescence at 1.6 nM IL-8 domains (CXCR1 [2]): 8730 | luminescence at 6.25 nM IL-8 domains (CXCR1 [2]): 22300 | luminescence at 25 nM IL-8 domains (CXCR1 [2]): 42200 | luminescence at 100 nM IL-8 domains (CXCR1 [2]): 54000 | average RLU at 0.01 nM (CXCR1 [1]): 440 RLU | average RLU at 0.08 nM (CXCR1 [1]): 504 RLU | average RLU at 0.23 nM (CXCR1 [1]): 940 RLU | average RLU at 0.69 nM (CXCR1 [1]): 1940 RLU | average RLU at 2.06 nM (CXCR1 [1]): 4110 RLU | average RLU at 6.17 nM (CXCR1 [1]): 5870 RLU | average RLU at 18.52 nM (CXCR1 [1]): 7300 RLU | average RLU at 31.5 nM (CXCR1 [1]): 55500 RLU | average RLU at 55.56 nM (CXCR1 [1]): 7360 RLU | average RLU at 166.67 nM (CXCR1 [1]): 6770 RLU | average RLU at 500.00 nM (CXCR1 [1]): 5720 RLU | luminescence at 0.1 nM IL-8 domains (CXCR1 [1]): 4200 | luminescence at 0.4 nM IL-8 domains (CXCR1 [1]): 6530 | luminescence at 0.5 nM IL-8 domains (CXCR1 [1]): 9790 | luminescence at 1.6 nM IL-8 domains (CXCR1 [1]): 12200 | luminescence at 2.2 nM IL-8 domains (CXCR1 [1]): 25700 | luminescence at 6.25 nM IL-8 domains (CXCR1 [1]): 28600 | luminescence at 9.9 nM IL-8 domains (CXCR1 [1]): 50300 | luminescence at 25 nM IL-8 domains (CXCR1 [1]): 50500 | luminescence at 44 nM IL-8 domains (CXCR1 [1]): 54100 | luminescence at 100 nM IL-8 domains (CXCR1 [1]): 70200 | luminescence at 200 nM IL-8 domains (CXCR1 [1]): 50400

Negative Control IgG (antibody)
IL-2 ELISA (A450), Donor 1, [IgG] 0.01 nM (Kv1.3 (human)): 2 A450 and 2.15 A450 | IL-2 ELISA (A450), Donor 1, [IgG] 0.75 nM (Kv1.3 (human)): 2.11 A450 and 2.04 A450 | IL-2 ELISA (A450), Donor 1, [IgG] 68 nM (Kv1.3 (human)): 1.48 A450 and 1.55 A450 | IL-2 ELISA (A450), Donor 2, [IgG] 0.01 nM (Kv1.3 (human)): 1.61 A450 and 1.48 A450 | IL-2 ELISA (A450), Donor 2, [IgG] 0.75 nM (Kv1.3 (human)): 1.56 A450 and 1.52 A450 | IL-2 ELISA (A450), Donor 2, [IgG] 68 nM (Kv1.3 (human)): 1.5 A450 and 1.37 A450 | TNF-α ELISA (A450), Donor 1, [IgG] 0.01 nM (Kv1.3 (human)): 1.62 A450 and 1.66 A450 | TNF-α ELISA (A450), Donor 1, [IgG] 0.75 nM (Kv1.3 (human)): 1.69 A450 and 1.65 A450 | TNF-α ELISA (A450), Donor 1, [IgG] 68 nM (Kv1.3 (human)): 1.02 A450 and 1.13 A450 | TNF-α ELISA (A450), Donor 2, [IgG] 0.01 nM (Kv1.3 (human)): 2.07 A450 and 1.77 A450 | TNF-α ELISA (A450), Donor 2, [IgG] 0.75 nM (Kv1.3 (human)): 2.04 A450 and 1.85 A450 | TNF-α ELISA (A450), Donor 2, [IgG] 68 nM (Kv1.3 (human)): 1.88 A450 and 1.54 A450

BLV1H12 (antibody)
IL-2 ELISA (A450); Donor 1; 150 nM IgG (Kv1.3 (human)): 0.445 A450 | IL-2 ELISA (A450); Donor 2; 150 nM IgG (Kv1.3 (human)): 0.355 A450 | TNF-α ELISA (A450); Donor 1; 150 nM IgG (Kv1.3 (human)): 0.11 A450 | TNF-α ELISA (A450); Donor 2; 150 nM IgG (Kv1.3 (human)): 0.058 A450
